Experimental data: publication PMC9894130, “SV40 T-antigen uses a DNA shearing mechanism to initiate origin unwinding” (Proceedings of the National Academy of Sciences of the …, 2022)

Molecular target: the molecule itself
Assay: cryo-EM structure; T-Ag^131–627 incubated with AMP-PNP in the absence of DNA (apo form); 3D map at 5.6 Å, rigid-body docking of crystal structures of smaller fragments

B1: SV40 large T-Antigen helicase, residues 131-627 (T-Ag^131–627) (domain or fragment)
chain: KVEDPKDFPSELLSFLSHAVFSNRTLACFAIYTTKEKAALLYKKIMEKYSVTFISRHNSYNHNILFFLTPHRHRVSAINNYAQKLCTFSFLICKGVNKEYLMYSALTRDPFSVIEESLPGGLKEHDFNPEEAEETKQVSWKLVTEYAMETKCDDVLLLLGMYLEFQYSFEMCLKCIKKEQPSHYKYHEKHYANAAIFADSKNQKTICQQAVDTVLAKKRVDSLQLTREQMLTNRFNDLLDRMDIMFGSTGSADIEEWMAGVAWLHCLLPKMDSVVYDFLKCMVYNIPKKRYWLFKGPIDSGKTTLAAALLELCGGKALNVNLPLDRLNFELGVAIDQFLVVFEDVKGTGGESRDLPSGQGINNLDNLRDYLDGSVKVNLEKKHLNKRTQIFPPGIVTMNEYSVPKTLQARFVKQIDFRPKDYLKHCLERSEFLLEKRIIQSGIALLLMLIWYRPVAEFAQSIQSRIVEWKERLDKEFSLSVYQKMKFNVAMGIGVLD
notes: Simian Virus 40 large T-Antigen, residues 131-627; lacks the N-terminal DnaJ-homology domain and the extreme C-terminal host-range determination region; holds OBD, ZBD and AAA+ domains; also called J-domain truncated T-Ag; source: expressed in E. coli (details in the SI Appendix)
  stoichiometry N: 6
